From the supplement of paper PMC10724198
± gives the standard deviation of the averaged measurements.

test system: Saccharomyces cerevisiae; assay: protein stability index of tFT-peptide fusion (C-terminal peptide) (PSI (0-1 scale)); higher = more stable (slower turnover); settings: genetic background: wild type; temperature: 30 C
Description: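 Multiplexed protein stability (MPS) profiling in S. cerevisiae. Random 12-aa peptides (tFT-X12 library) are fused to the C-terminus of a sfGFP-mCherry tandem fluorescent timer, after mCherry and a GGGS linker. Cells are FACS-sorted into 8 mCherry/sfGFP bins and deep-sequenced. The protein stability index (PSI) is the read-weighted bin average, scaled from 0 (unstable) to 1 (stable). Only peptides with >10 reads are reported; cells were grown at 30 °C in SC-His with glucose.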
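Note: PSI is a weighted mean of sequencing reads over stability bins, variants kept only with over 10 reads, mCherry proximal and sfGFP distal, peptide attached via GGGS linker.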

| Sequence | protein stability index |
| --- | --- |
| GVWVGAVRGRYG | 0.6625 ± 0.0061 |
| GVYFMGVLGREG | 0.655 ± 0.067 |
| GVYVGWFMRSGG | 0.678 ± 0.015 |
| GWAGRCAPGRVG | 0.637 ± 0.093 |
| GWCPNRRSGVWV | 0.7285 ± 0.0032 |
| GWCVWGVFSTAL | 0.631 ± 0.033 |
| GWEVGRGRLGVV | 0.696 ± 0.095 |
| GWFVGLVSRSLH | 0.67 ± 0.019 |
| GWFVVYQIGSEV | 0.564 ± 0.063 |
| GWGGGGGAGGSV | 0.683 ± 0.018 |
| GWGGGGGAWKGV | 0.736 ± 0.072 |
| GWGPGGSERCGL | 0.711 ± 0.025 |
| GWLRGVCFCSWG | 0.73 ± 0.037 |
| GWQCGVNRGGWW | 0.752 ± 0.057 |
| GWSVGQSEMNTY | 0.73 ± 0.056 |
| GWVFLRVARFGL | 0.684 ± 0.045 |
| GWWCGGGGAWSG | 0.719 ± 0.041 |
| GWWGCGGWGFVG | 0.624 ± 0.05 |
| GYAGAIMAGYDP | 0.656 ± 0.033 |
| GYATVILYPSID | 0.653 ± 0.029 |
| GYDLSASRALLA | 0.65 ± 0.019 |
| GYLNSCADKNKV | 0.664 ± 0.028 |
| GYMFLSFLKLCW | 0.599 ± 0.021 |
| GYPRPLPYTPST | 0.687 ± 0.023 |
| GYPSLYCLSVFM | 0.6155 ± 0.0058 |

| Sequence | protein stability index |
| --- | --- |
| GYRGRDETNATN | 0.65 ± 0.025 |
| GYRNIEYGFGSG | 0.575 ± 0.061 |
| GYRVNIDIKIVY | 0.5247 ± 0.0031 |
| GYVLVLGVKGGL | 0.648 ± 0.032 |
| HAIPAPDLYHTQ | 0.651 ± 0.09 |
| HAPAPPLPTIYP | 0.668 ± 0.094 |
| HAPRSPCLPFPP | 0.687 ± 0.047 |
| HASPPPDASPPL | 0.687 ± 0.022 |
| HCVSPKPFLKSE | 0.695 ± 0.045 |
| HDQKVPRERRTR | 0.699 ± 0.025 |
| HDRRKAFHVVWL | 0.663 ± 0.039 |
| HDSMTQEPQNSA | 0.65 ± 0.065 |
| HDSRIDIASFHV | 0.716 ± 0.024 |
| HEDIPGSTYTIN | 0.734 ± 0.033 |
| HFLSCVGSLWFH | 0.741 ± 0.0087 |
| HGGCLGGYGGGG | 0.661 ± 0.036 |
| HGLLLRDRPLPT | 0.665 ± 0.024 |
| HGLVLLCINDIV | 0.6312 ± 0.001 |
| HGSDTSIALRSG | 0.622 ± 0.038 |
| HHHPGQKCKIKG | 0.731 ± 0.016 |
| HHLPPRTPPHNS | 0.657 ± 0.037 |
| HHQVVPDVSLVS | 0.6585 ± 0.0013 |
| HHTQPLKSIKKN | 0.708 ± 0.037 |
| HIFAQSFLNIRI | 0.709 ± 0.04 |
| HIGVVSIERLTS | 0.576 ± 0.021 |

| Sequence | protein stability index |
| --- | --- |
| HIHKKGPSGHQK | 0.696 ± 0.028 |
| HIPPPPRPSAPP | 0.69 ± 0.04 |
| HLGRRSGAQGLF | 0.699 ± 0.06 |
| HLPPFSGIHLTP | 0.719 ± 0.011 |
| HLPPLHRLSPPI | 0.668 ± 0.04 |
| HLPPPPSPPPPP | 0.68 ± 0.051 |
| HLPPSSPPLAVI | 0.68 ± 0.009 |
| HLPRRAAILNEF | 0.709 ± 0.049 |
| HLPSPPPPPSRL | 0.744 ± 0.031 |
| HLSCVSVSVRGS | 0.629 ± 0.015 |
| HLSNSCLHGVSG | 0.6484 ± 0.00096 |
| HLSPPLPPAPTS | 0.7022 ± 0.0063 |
| HLSPPPLPPLTS | 0.696 ± 0.037 |
| HLVLIHPTQTLN | 0.634 ± 0.045 |
| HMQCVFRSTHHR | 0.585 ± 0.054 |
| HNGRAARAYLCW | 0.65 ± 0.046 |
| HNRADKLQTTIE | 0.69 ± 0.033 |
| HPARPRPRLALS | 0.666 ± 0.043 |
| HPGPFSTTWHPT | 0.743 ± 0.068 |
| HPHRSAIIAGNH | 0.72 ± 0.0083 |
| HPLLTPTPHKPD | 0.699 ± 0.11 |
| HPLPPPLLPSPA | 0.659 ± 0.096 |
| HPLVASRLSPFP | 0.761 ± 0.07 |
| HPPHLSTPPYPP | 0.722 ± 0.047 |
| HPPLPRPPPVPH | 0.683 ± 0.019 |

| Sequence | protein stability index |
| --- | --- |
| HPPPDPLPSRPS | 0.765 ± 0.093 |
| HPPPHPPFPPRF | 0.73 ± 0.016 |
| HPPPLVPSPSTQ | 0.749 ± 0.067 |
| HPPSPPPPAPSC | 0.738 ± 0.02 |
| HPRLLLYLPTSS | 0.726 ± 0.1 |
| HPRRRPPPPSFP | 0.611 ± 0.023 |
| HPSEPCKSQILL | 0.712 ± 0.027 |
| HPSLSDLIVLCR | 0.51 ± 0.01 |
| HPTLPLLSHPTS | 0.798 ± 0.14 |
| HPTSPDPLVTPL | 0.737 ± 0.068 |
| HPYTPLLSRLSP | 0.708 ± 0.0077 |
| HQFRPYPLFTAR | 0.733 ± 0.013 |
| HQLHLMRDSIRN | 0.716 ± 0.021 |
| HRCVQFMNWVAF | 0.735 ± 0.045 |
| HRDRPYTPLSRF | 0.722 ± 0.13 |
| HRKKTKNVTHVK | 0.6485 ± 0.0062 |
| HRNPNLPFPPPL | 0.74 ± 0.069 |
| HRTSSCESSPLA | 0.737 ± 0.076 |
| HSAVRMGTRGRG | 0.715 ± 0.049 |
| HSCPVCVGWNYS | 0.654 ± 0.047 |
| HSDRPSPTRPQP | 0.6431 ± 0.0029 |
| HSHAGIGPVVTR | 0.672 ± 0.0077 |
| HSHKHTREDTVL | 0.657 ± 0.036 |
| HSPASLPHLSGK | 0.728 ± 0.063 |
| HSPPPLPLPTHP | 0.719 ± 0.077 |

| Sequence | protein stability index |
| --- | --- |
| HSSALFSSRLRF | 0.7223 ± 0.0036 |
| HVAETRLRDHGW | 0.714 |
| HVGEVERGGMGG | 0.7157 ± 0.0021 |
| HVPGGRADMTRS | 0.706 ± 0.0097 |
| HVRARLVVHQRA | 0.631 ± 0.047 |
| HVRSPLRRVEKF | 0.6988 ± 0.006 |
| HVSSKMEWGNRD | 0.763 ± 0.066 |
| HVTGFVQRYLCH | 0.711 ± 0.092 |
| HWPSGGGGPASH | 0.753 ± 0.037 |
| HWRCASLTLSAG | 0.8 ± 0.02 |
| HYYYPSPPSSRH | 0.621 ± 0.042 |
| IACSLSSFSPVW | 0.687 ± 0.031 |
| IAKAVCESLCLQ | 0.7146 ± 0.0063 |
| IALPPPGILDSA | 0.683 ± 0.16 |
| IALPPPLLPPSL | 0.706 ± 0.051 |
| IALTSCVPDLSF | 0.6911 ± 0.0037 |
| IAQVDLPDRMKT | 0.6937 ± 0.0061 |
| IARYLGRYERNV | 0.687 ± 0.042 |
| IAVHLSVSSRSW | 0.616 ± 0.035 |
| ICRGGLWGVCVG | 0.581 ± 0.0097 |
| ICRGGYELLELG | 0.68 ± 0.026 |
| ICVAVESRVSRG | 0.628 ± 0.046 |
| ICYGIHYAQRGS | 0.646 ± 0.069 |
| ICYGLHVPARRR | 0.63303 ± 0.00013 |
| IDDITMYRKKYR | 0.66 ± 0.047 |

| Sequence | protein stability index |
| --- | --- |
| IDKGENTGKHRL | 0.673 ± 0.027 |
| IDLISENDNAVG | 0.709 ± 0.021 |
| IDMGEQTGKMIN | 0.72 ± 0.012 |
| IDSCFKEVAYGK | 0.625 ± 0.014 |
| IEDEHLEDAPYG | 0.678 ± 0.048 |
| IEETKDYTRKRQ | 0.6484 ± 0.0034 |
| IEGEVRKIGNPT | 0.681 ± 0.086 |
| IEHYPVSSPKMR | 0.623 ± 0.079 |
| IERCGIVKEVKG | 0.74 ± 0.012 |
| IFINAGGYTHTN | 0.726 ± 0.067 |
| IFSPHRPAVALV | 0.626 ± 0.073 |
| IFWGFSFRGWAC | 0.656 ± 0.0067 |
| IFWLFLPSVPFL | 0.702 ± 0.12 |
| IGARLMVGASRK | 0.775 ± 0.16 |
| IGFGPVSCARLF | 0.679 ± 0.11 |
| IGGLSLGESIGG | 0.689 ± 0.02 |
| IGLTVICHFMNV | 0.576 ± 0.05 |
| IGNKLSKMIDTS | 0.665 ± 0.053 |
| IGQCYLRHRGMS | 0.5544 ± 0.0053 |
| IGRRSRALKITE | 0.629 ± 0.03 |
| IGSRRMDADERV | 0.691 ± 0.026 |
| IGVSDSGMWMGN | 0.694 ± 0.026 |
| IICSKLHSPLVV | 0.509 ± 0.031 |
| IIVGFFGLLLGL | 0.5413 ± 0.0048 |
| IIVWVGAGLWGV | 0.594 ± 0.011 |

| Sequence | protein stability index |
| --- | --- |
| IKCCIGCSSICG | 0.692 ± 0.042 |
| IKFVRLEGLCPL | 0.624 ± 0.019 |
| IKGVEKDKKTQK | 0.747 ± 0.045 |
| IKKDSRQRKRDE | 0.648 ± 0.0084 |
| IKKKKKKENKRR | 0.741 ± 0.014 |
| IKLCRSTVVTGV | 0.592 ± 0.013 |
| IKNKDLISVIII | 0.646 ± 0.042 |
| IKRKQRKRKSEK | 0.86 ± 0.14 |
| IKSKKKKKRNKR | 0.638 ± 0.032 |
| IKSQRGIHLELR | 0.634 ± 0.028 |
| ILCQLRKFKFQN | 0.58 ± 0.013 |
| ILEGGGVLAWFG | 0.7253 ± 0.0017 |
| ILFIKQKYLIKK | 0.6878 ± 0.003 |
| ILGGVSPSAFVI | 0.664 ± 0.022 |
| ILGIESLVAGLL | 0.697 ± 0.062 |
| ILGQLHKHFKTS | 0.546 ± 0.046 |
| ILHGRSGLRELL | 0.688 ± 0.023 |
| ILNKYYEQSMRT | 0.68 ± 0.011 |
| ILPPPPPPPPPF | 0.714 ± 0.039 |
| ILRSVIFMDACV | 0.629 ± 0.018 |
| ILSMSQPHPILS | 0.6175 ± 0.0042 |
| ILTDFELLPVYR | 0.731 ± 0.063 |
| ILVGKIEGIVQE | 0.662 ± 0.025 |
| INCDIIHRRKKG | 0.6462 ± 0.0042 |
| INGYRYHTVNIK | 0.688 ± 0.03 |

| Sequence | protein stability index |
| --- | --- |
| INNTKQSENRKS | 0.701 ± 0.054 |
| INRLKPGRGQKT | 0.658 ± 0.03 |
| IPDATGYGWVRH | 0.691 ± 0.018 |
| IPDSSPIVPHPK | 0.6722 ± 0.0065 |
| IPEEHKLTWIIP | 0.74 ± 0.067 |
| IPFFHVVPRPPP | 0.628 ± 0.024 |
| IPIPLLPASSPP | 0.6877 ± 0.0063 |
| IPKDLSRLELYR | 0.62 ± 0.071 |
| IPPFRLLCRLRL | 0.642 ± 0.022 |
| IPPNPPPPNTIA | 0.557 ± 0.0097 |
| IPPPVLPSPPSP | 0.672 ± 0.1 |
| IPRCSPAGVSSY | 0.696 ± 0.064 |
| IPTVSLLHLPPV | 0.699 ± 0.047 |
| IQKNSGHPMKEA | 0.711 ± 0.023 |
| IQLEFEDMERGK | 0.704 ± 0.11 |
| IQNTERIKIQTK | 0.6791 ± 0.0034 |
| IRCGQFSVVSES | 0.6 ± 0.028 |
| IRHTQVSHIIYA | 0.488 ± 0.029 |
| IRKNWQRIGETA | 0.662 ± 0.026 |
| IRLFAPVVFLPL | 0.644 ± 0.054 |
| IRQTIEGRRLVM | 0.662 ± 0.026 |
